Measured values reported in patent publication US20070036786A1 (published 2007).
Numbering of substitutions follows the chain as printed.

B1: chimeric 3G8 antibody (ch3G8VH/ch3G8VL) (antibody, V domains shown)
VH: QVTLKESGPGILQPSQTLSLTCSFSGFSLRTSGMGVGWIRQPSGKGLEWLAHIWWDDDKRYNPALKSRLTISKDTSSNQVFLKIASVDTADTATYYCAQINPAWFAYWGQGTLVTVSS
VL: DTVLTQSPASLAVSLGQRATISCKASQSVDFDGDSFMNWYQQKPGQPPKLLIYTTSNLESGIPARFSASGSGTDFTLNIHPVEEEDTATYYCQQSNEDPYTFGGGTKLEIK
notes: Mouse 3G8 variable domains (VH FR4 ala to ser) on human Cγ1 and Cκ constant regions; also called ch3G8-γ1
B2: hu3G8VH-1/hu3G8VL-1 (antibody, human IgG1, kappa)
heavy: not shown
light: DIVMTQSPDSLAVSLGERATINCKASQSVDFDGDSFMNWYQQKPGQPPKLLIYTTSNLESGVPDRFSGSGSGTDFTLTISSLQAEDVAVYYCQQSNEDPYTFGQGTKLEIKRTVAAPSVFIFPPSDEQLKSGTASVVCLLNNFYPREAKVQWKVDNALQSGNSQESVTEQDSKDSTYSLSSTLTLSKADYEKHKVYACEVTHQGLSSPVTKSFNRGEC
notes: Heavy chain Hu3G8VH-1G1, light chain Hu3G8VL-1K; also called Hu3G8-1.1
B3: hu3G8VH-22/hu3G8VL-1 (antibody)
VH: QVTLRESGPALVKPTQTLTLTCTFSGFSLSTSGVGVGWIRQPPGKALEWLAHIWWDDDKRYSPSLKSRLTISKDTSKNQVVLTMTNMDPVDTATYYCARINPAYFAYWGQGTLVTVS
light: B2 light
notes: VH fused to human Cγ1 constant region (glycosylated form)
B4: hu3G8VH-20/hu3G8VL-1 (antibody)
VH: QVTLRESGPALVKPTQTLTLTCTFSGFSLSTSGVGVGWIRQPPGKALEWLAHIWWDDDKRYSPSLKSRLTISKDTSKNQVVLTMTNMDPVDTATYYCARINPAWFAYWGQGTLVTVSS
light: B2 light
notes: VH fused to human Cγ1 constant region
B5: hu3G8VH-35/hu3G8VL-1 (antibody)
VH: B4 VH with V2I, R5K, A10T, R99Q, W104Y
light: B2 light
notes: as for B4
B6: hu3G8VH-6/hu3G8VL-1 (antibody)
VH: B4 VH with S62N, S64A, A106D
light: B2 light
notes: as for B4
B7: hu3G8VH-37/hu3G8VL-1 (antibody)
VH: B4 VH with V2I, R5K, A10T, H52L, R99K, W104Y
light: B2 light
notes: as for B4
B8: hu3G8VH-17/hu3G8VL-1 (antibody)
VH: B4 VH with V34M, S62N, S64A, R99A
light: B2 light
notes: as for B4
B9: hu3G8VH-34/hu3G8VL-1 (antibody)
VH: B4 VH with V2I, R5K, A10T, W104Y
light: B2 light
notes: as for B4
B10: hu3G8VH-8/hu3G8VL-1 (antibody)
VH: B4 VH with V34M, S62N, S64A, W104Y
light: B2 light
notes: as for B4
B11: hu3G8VH-18/hu3G8VL-1 (antibody)
VH: B4 VH with V34M, S62N, S64A, R99H
light: B2 light
notes: as for B4
B12: hu3G8VH-36/hu3G8VL-1 (antibody)
VH: B4 VH with V2I, R5K, A10T, H52L, R99Q, W104Y, A106D
light: B2 light
notes: as for B4
B13: hu3G8VH-44/hu3G8VL-1 (antibody)
VH: B4 VH with V2I, R5K, A10T, S72T, R99H, W104Y, A106D
light: B2 light
notes: as for B4
B14: hu3G8VH-31/hu3G8VL-1 (antibody)
VH: B4 VH with V2I, R5K, A10T
light: B2 light
notes: as for B4
B15: hu3G8VH-42/hu3G8VL-1 (antibody)
VH: B4 VH with V2I, R5K, A10T, S72T
light: B2 light
notes: as for B4
B16: hu3G8VH-16/hu3G8VL-1 (antibody)
VH: B4 VH with V34M, S62N, S64A, R99K
light: B2 light
notes: as for B4
B17: hu3G8VH-2/hu3G8VL-1 (antibody)
VH: B4 VH with R5K, V34M, S62N, S64A
light: B2 light
notes: as for B4
B18: hu3G8VH-26/hu3G8VL-1 (antibody)
VH: B4 VH with R99Q, W104Y
light: B2 light
notes: as for B4
B19: hu3G8VH-23/hu3G8VL-1 (antibody)
VH: B4 VH with R99K, W104Y
light: B2 light
notes: as for B4
B20: hu3G8VH-40/hu3G8VL-1 (antibody)
VH: B4 VH with V2I, R5K, A10T, W54F
light: B2 light
notes: as for B4
B21: hu3G8VH-29/hu3G8VL-1 (antibody)
VH: B4 VH with R99H, W104Y, A106D
light: B2 light
notes: as for B4
B22: hu3G8VH-45/hu3G8VL-1 (antibody)
VH: B4 VH with V2I, R5K, A10T, S72T, R99Q, W104Y, A106D
light: B2 light
notes: as for B4
B23: hu3G8VH-19/hu3G8VL-1 (antibody)
VH: B4 VH with V34M, S62N, S64A, R99Q, W104Y
light: B2 light
notes: as for B4
B24: hu3G8VH-25/hu3G8VL-1 (antibody)
VH: B4 VH with R99H, W104Y
light: B2 light
notes: as for B4
B25: hu3G8VH-3/hu3G8VL-1 (antibody)
VH: B4 VH with S30R, V34M, S62N, S64A
light: B2 light
notes: as for B4
B26: hu3G8VH-24/hu3G8VL-1 (antibody)
VH: B4 VH with R99A, W104Y
light: B2 light
notes: as for B4
B27: hu3G8VH-30/hu3G8VL-1 (antibody)
VH: B4 VH with R99Q, W104Y, A106D
light: B2 light
notes: as for B4
B28: hu3G8VH-43/hu3G8VL-1 (antibody)
VH: B4 VH with V2I, R5K, A10T, S72T, W104Y
light: B2 light
notes: as for B4
B29: hu3G8VH-27/hu3G8VL-1 (antibody)
VH: B4 VH with R99K, W104Y, A106D
light: B2 light
notes: as for B4
B30: hu3G8VH-28/hu3G8VL-1 (antibody)
VH: B4 VH with R99A, W104Y, A106D
light: B2 light
notes: as for B4
B31: hu3G8VH-14/hu3G8VL-1 (antibody)
VH: B4 VH with V34M, D56N, S62N, S64A
light: B2 light
notes: as for B4
B32: hu3G8VH-5/hu3G8VL-1 (antibody)
VH: B4 VH with V34M, S62N, S64A, R99Q
light: B2 light
notes: VH fused to human Cγ1 constant region (glycosylated form); also called Hu3G8-5.1
B33: hu3G8VH-4/hu3G8VL-1 (antibody)
VH: B4 VH with V34M, S62N, S64A, R99Q, A106D
light: B2 light
notes: as for B4
B34: hu3G8VH-12/hu3G8VL-1 (antibody)
VH: B4 VH with V34M
light: B2 light
notes: as for B4

What follows are binders tested against T1, soluble human CD16A (sCD16A) (human, UniProt P08637 17-203) (assay: ELISA, captured sCD16A).
T1 construct: CD16A truncated just prior to the transmembrane region, expressed in HEK-293; The last seven residues come from vector pCDNA3.1; also called soluble form of human CD16A
Experimental: The plate was washed and dilutions of recombinant antibodies starting at 0.5 μg/ml in PBS-T-BSA were then added and incubated for 1 hr at room temp. Binding of recombinant antibodies to the captured sCD16A was then measured using an anti-human IgG-HRP conjugate and TMB substrate. After stopping color development using dilute sulfuric acid, the plate was read at 450 nm.

T1 sequence (P08637 other isoform, or with tags, fused parts or gaps limits assumed): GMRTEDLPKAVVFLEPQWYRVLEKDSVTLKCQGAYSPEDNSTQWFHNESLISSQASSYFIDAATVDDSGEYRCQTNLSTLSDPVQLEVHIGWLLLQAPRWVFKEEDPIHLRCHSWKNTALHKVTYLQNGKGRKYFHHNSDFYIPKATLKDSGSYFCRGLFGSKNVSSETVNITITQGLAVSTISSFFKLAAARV

Row | binding result | Binder
1 | binds | B1
2 | binds | B2
3 | binds | B3
4 | binds | B4
5 | binds | B5
6 | binds | B6
7 | binds | B7
8 | binds | B8
9 | binds | B9
10 | binds | B10
11 | binds | B11
12 | binds | B12
13 | binds | B13
14 | binds | B14
15 | binds | B15
16 | binds | B16
17 | binds | B17

Row | binding result | Binder
18 | binds | B18
19 | binds | B19
20 | binds | B20
21 | binds | B21
22 | binds | B22
23 | binds | B23
24 | binds | B24
25 | binds | B25
26 | binds | B26
27 | binds | B27
28 | binds | B28
29 | binds | B29
30 | binds | B30
31 | binds | B31
32 | binds | B32
33 | binds | B33
34 | binds | B34
